Laboratory results as given in patent US8598314B2 (priority 2007, dated 2013).
Where two headings read alike, the source gives them in different places.

What was measured:
Recombinant DPP-IV = Recombinant DPP-IV (Homo sapiens, UniProt P27487); experiment: DPP-IV resistance assay by mass spectrometry
Protocol: The peptides were then desalted and concentrated on a C18 peptide micro trap (Michrom Bioresources, Inc., Auburn, Calif.) prior to introduction to a LTQ FT™ mass spectrometer (Thermo-Electron Corp., Waltham, Mass.) via an autosampler (Michrom Bioresources, Inc.). Peptides were eluted from a C5 packed 75 μm fused silica pico-frit column (New Objective, Inc., Woburn, Mass.) using a 5-60% acetonitrile/water gradient over 50 minutes at a flow rate of 500 nl/min. Extracted ion mass windows for the calculated m/z values of the most dominant charge states were used to search for both the parent compound and the theoretical hydrolyzed products within a given chromatogram. Exact mass was confirmed for each charge state by FT. The percentage of hydrolysis catalyzed by DPP-IV was estimated by dividing the area of product ions by the area of the total (parent+product) ions.
The estimated cleavage product conversion is based on the ratio of the ion extract area (indicated on top of the peaks) for [product ion]^5+ over that for total ions ([Mother Ion]^5++[product ion]^5+). The m/z ratios used to search for the expected ions are listed on the right side of the plots.

[1] = in vivo; cited from earlier work

Sequence of Recombinant DPP-IV (P27487 whole entry, species assumed, the tested form may be a part): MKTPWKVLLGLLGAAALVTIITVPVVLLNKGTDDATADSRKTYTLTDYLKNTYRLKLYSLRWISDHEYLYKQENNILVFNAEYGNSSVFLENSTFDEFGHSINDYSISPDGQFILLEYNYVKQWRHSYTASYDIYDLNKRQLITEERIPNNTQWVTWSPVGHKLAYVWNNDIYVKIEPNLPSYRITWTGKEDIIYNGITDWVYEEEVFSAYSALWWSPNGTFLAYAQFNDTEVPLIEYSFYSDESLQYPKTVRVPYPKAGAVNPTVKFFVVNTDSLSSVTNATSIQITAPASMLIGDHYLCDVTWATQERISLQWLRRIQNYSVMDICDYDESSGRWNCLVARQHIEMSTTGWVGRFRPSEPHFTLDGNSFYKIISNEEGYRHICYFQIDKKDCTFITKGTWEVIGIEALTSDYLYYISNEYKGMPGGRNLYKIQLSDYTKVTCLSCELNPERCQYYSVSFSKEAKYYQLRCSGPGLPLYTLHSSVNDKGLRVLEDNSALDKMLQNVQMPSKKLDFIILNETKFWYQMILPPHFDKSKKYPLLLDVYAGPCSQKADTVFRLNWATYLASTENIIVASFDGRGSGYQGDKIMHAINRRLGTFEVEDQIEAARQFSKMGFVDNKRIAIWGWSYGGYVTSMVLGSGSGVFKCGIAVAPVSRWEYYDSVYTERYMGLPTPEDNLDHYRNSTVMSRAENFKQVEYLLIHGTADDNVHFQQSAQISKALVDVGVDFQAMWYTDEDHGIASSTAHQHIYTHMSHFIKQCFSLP

CC[C@H](C)[C@H](NC(=O)[C@H](Cc1ccccc1)NC(=O)[C@H](CCC(=O)O)NC(=O)[C@H](CCCCN)NC(=O)[C@H](C)NC(=O)[C@H](C)NC(=O)[C@H](CCC(N)=O)NC(=O)CNC(=O)[C@H](CCC(=O)O)NC(=O)[C@H](CC(C)C)NC(=O)[C@H](Cc1ccc(O)cc1)NC(=O)[C@H](CO)NC(=O)[C@H](CO)NC(=O)[C@@H](NC(=O)[C@H](CC(=O)O)NC(=O)[C@H](CO)NC(=O)[C@@H](NC(=O)[C@H](Cc1ccccc1)NC(=O)[C@@H](NC(=O)CNC(=O)[C@H](CCC(=O)O)NC(=O)[C@H](C)NC(=O)[C@@H](N)Cc1c[nH]cn1)[C@@H](C)O)[C@@H](C)O)C(C)C)C(=O)N[C@@H](C)C(=O)N[C@@H](Cc1c[nH]c2ccccc12)C(=O)N[C@@H](CC(C)C)C(=O)N[C@H](C(=O)N[C@@H](CCCCN)C(=O)NCC(=O)N[C@@H](CCCNC(=N)N)C(=O)NCC(=O)NCC(=O)NCC(=O)NCCCC[C@H](N)C(=O)N1CCSC1)C(C)C [Compound 4844, GLP-1(7-37)-GG-(S)-2,6-diamino-1-(thiazolidin-3-yl)hexan-1-one amide]
DPP-IV resistance (in words) (Recombinant DPP-IV; treated with 0.1 mU DPP-IV): expected product ions were not observed

CC[C@H](C)[C@H](NC(=O)[C@H](Cc1ccccc1)NC(=O)[C@H](CCC(=O)O)NC(=O)[C@H](CCCCN)NC(=O)[C@H](C)NC(=O)[C@H](C)NC(=O)[C@H](CCC(N)=O)NC(=O)CNC(=O)[C@H](CCC(=O)O)NC(=O)[C@H](CC(C)C)NC(=O)[C@H](Cc1ccc(O)cc1)NC(=O)[C@H](CO)NC(=O)[C@H](CO)NC(=O)[C@@H](NC(=O)[C@H](CC(=O)O)NC(=O)[C@H](CO)NC(=O)[C@@H](NC(=O)[C@H](Cc1ccccc1)NC(=O)[C@@H](NC(=O)CNC(=O)[C@H](CCC(=O)O)NC(=O)[C@H](C)NC(=O)[C@@H](N)Cc1c[nH]cn1)[C@@H](C)O)[C@@H](C)O)C(C)C)C(=O)N[C@@H](C)C(=O)N[C@@H](Cc1c[nH]c2ccccc12)C(=O)N[C@@H](CC(C)C)C(=O)N[C@H](C(=O)N[C@@H](CCCCN)C(=O)NCC(=O)N[C@@H](CCCNC(=N)N)C(=O)NCC(=O)NCC(=O)NCC(=O)NCCCC[C@H](N)C(=O)N1CCSC1C#N)C(C)C (stereo partly drawn) [Compound 4845, GLP-1(7-37)-GG-(S)-2,6-diamino-1-(thiazolidin-2-cyano-3-yl)hexan-1-one amide]
DPP-IV resistance (in words) (Recombinant DPP-IV): expected product ions were not observed

CC[C@H](C)[C@H](NC(=O)[C@H](Cc1ccccc1)NC(=O)[C@H](CCC(=O)O)NC(=O)[C@H](CCCCN)NC(=O)[C@H](C)NC(=O)[C@H](C)NC(=O)[C@H](CCC(N)=O)NC(=O)CNC(=O)[C@H](CCC(=O)O)NC(=O)[C@H](CC(C)C)NC(=O)[C@H](Cc1ccc(O)cc1)NC(=O)[C@H](CO)NC(=O)[C@H](CO)NC(=O)[C@@H](NC(=O)[C@H](CC(=O)O)NC(=O)[C@H](CO)NC(=O)[C@@H](NC(=O)[C@H](Cc1ccccc1)NC(=O)[C@@H](NC(=O)CNC(=O)[C@H](CCC(=O)O)NC(=O)[C@H](C)NC(=O)[C@@H](N)Cc1c[nH]cn1)[C@@H](C)O)[C@@H](C)O)C(C)C)C(=O)N[C@@H](C)C(=O)N[C@@H](Cc1c[nH]c2ccccc12)C(=O)N[C@@H](CC(C)C)C(=O)N[C@H](C(=O)N[C@@H](CCCCN)C(=O)NCC(=O)N[C@@H](CCCNC(=N)N)C(N)=O)C(C)C [GLP-1, reference compound]
metabolic clearance rate [1]: 12 to 13 min
